Reference: the Human Domainome abundance scans (Beltran et al. 2025)
± gives the uncertainty stated by the source.

B1: Segment polarity protein dishevelled homolog DVL-3, residues 2 to 81; numbered along this chain, Q92997 (parent)
chain: GETKIIYHLDGQETPYLVKLPLPAERVTLADFKGVLQRPSYKFFFKSMDDDFGVVKEEISDDNAKLPCFNGRVVSWLVSA

Variants of: B1
Assay: abundance fitness (aPCA) (normalised: wild type 0, dead -1); higher = more abundant; growth selection in yeast, the domain comes from the species named
Details: Homo sapiens

Variant	abundance fitness
R38G	-0.076 ± 0.052
R38C	0.139 ± 0.079
R38V	-0.024 ± 0.057
R38W	-0.099 ± 0.066
R38F	-0.142 ± 0.12
R38P	-0.341 ± 0.1
R38T	0.187 ± 0.064
R38A	0.009 ± 0.064
R38K	0.147 ± 0.062
R38L	-0.114 ± 0.056
R38N	0.255 ± 0.085
R38H	0.001 ± 0.11
R38Q	-0.069 ± 0.072
R38M	0.032 ± 0.064
R38D	0.284 ± 0.1
R38S	0.159 ± 0.053
R38I	-0.181 ± 0.1
R38Y	-0.188 ± 0.12
R38E	0.13 ± 0.066
Y41E	-0.486 ± 0.09
Y41R	-0.741 ± 0.069
Y41A	-0.431 ± 0.064
Y41S	-0.72 ± 0.091
Y41T	-0.511 ± 0.1

Variant	abundance fitness
Y41G	-0.496 ± 0.049
Y41V	-0.388 ± 0.054
Y41H	-0.304 ± 0.16
Y41N	-0.727 ± 0.19
Y41P	-0.538 ± 0.12
Y41Q	-0.403 ± 0.1
Y41W	-0.331 ± 0.066
Y41C	-0.227 ± 0.1
Y41L	-0.624 ± 0.077
Y41D	-0.673 ± 0.13
Y41K	-0.787 ± 0.15
S40M	0.098 ± 0.064
S40D	0.282 ± 0.065
S40Q	0.004 ± 0.076
S40P	-0.261 ± 0.089
S40K	-0.091 ± 0.076
S40F	-0.157 ± 0.11
S40E	0.003 ± 0.057
S40V	0.134 ± 0.046
S40C	0.045 ± 0.073
S40Y	0.121 ± 0.092
S40R	-0.254 ± 0.05
S40L	-0.258 ± 0.059
S40A	-0.024 ± 0.051

Variant	abundance fitness
S40W	-0.1 ± 0.06
S40G	0.116 ± 0.039
S40N	0.167 ± 0.096
F52H	0.32 ± 0.065
F52M	0.156 ± 0.056
F52A	0.263 ± 0.056
F52T	0.183 ± 0.048
F52Y	-0.063 ± 0.082
F52R	0.618 ± 0.048
F52C	0.351 ± 0.086
F52Q	0.268 ± 0.057
F52V	0.048 ± 0.061
F52I	0.036 ± 0.077
F52L	0.249 ± 0.042
F52S	0.37 ± 0.045
F52K	0.604 ± 0.051
F52E	0.335 ± 0.071
F52G	0.781 ± 0.057
S47W	-0.519 ± 0.082
S47I	0.336 ± 0.075
S47N	0.092 ± 0.11
S47R	0.34 ± 0.039
S47A	-0.051 ± 0.052
S47K	0.324 ± 0.06

Variant	abundance fitness
S47H	-0.207 ± 0.11
S47C	0.251 ± 0.065
S47P	-0.675 ± 0.14
S47D	-0.658 ± 0.15
S47L	0.024 ± 0.05
S47T	0.325 ± 0.057
S47M	0.415 ± 0.054
S47E	-0.726 ± 0.12
S47G	-0.336 ± 0.054
S47Q	-0.212 ± 0.086
S47F	0.011 ± 0.084
S47V	0.269 ± 0.041
K46Q	0.165 ± 0.067
K46P	-0.437 ± 0.096
K46F	-0.488 ± 0.26
K46I	-0.189 ± 0.11
K46G	-0.223 ± 0.053
K46E	0.277 ± 0.052
K46V	-0.407 ± 0.062
K46C	-0.068 ± 0.11
K46L	-0.138 ± 0.056
K46R	-0.08 ± 0.045
K46Y	-0.401 ± 0.14
K46N	-0.046 ± 0.1

Variant	abundance fitness
K46D	-0.061 ± 0.1
K46T	-0.392 ± 0.089
K46S	-0.196 ± 0.064
K46W	-0.227 ± 0.072
K46H	-0.132 ± 0.12
K46M	-0.081 ± 0.071
D49G	-0.046 ± 0.049
D49M	-0.402 ± 0.14
D49C	0.013 ± 0.075
D49T	0.111 ± 0.069
D49A	0.018 ± 0.052
D49L	-0.564 ± 0.076
D49E	-0.038 ± 0.07
D49K	0.203 ± 0.084
D49I	-0.231 ± 0.13
D49Q	-0.053 ± 0.089
D49V	-0.364 ± 0.069
D49W	-0.461 ± 0.093
D49N	0.296 ± 0.089
D49S	0.234 ± 0.048
D49H	0.136 ± 0.08
D49F	-0.488 ± 0.17
F45L	-0.775 ± 0.093
F45W	-0.605 ± 0.097

Variant	abundance fitness
F45V	-0.755 ± 0.087
F45H	-0.864 ± 0.24
F45D	-0.775 ± 0.17
F45M	-0.868 ± 0.16
F45R	-0.669 ± 0.067
F45T	-0.596 ± 0.099
F45K	-0.934 ± 0.15
F45I	-0.969 ± 0.23
F45N	-0.407 ± 0.16
F45P	-0.581 ± 0.1
F45E	-0.379 ± 0.076
F45Q	-0.669 ± 0.13
F45S	-0.856 ± 0.11
F45C	-0.569 ± 0.12
F45A	-0.533 ± 0.064
F44I	-0.624 ± 0.13
F44D	-0.749 ± 0.18
F44G	-0.754 ± 0.075
F44E	-0.683 ± 0.1
F44R	-0.753 ± 0.079
F44Y	-0.015 ± 0.095
F44Q	-0.745 ± 0.13
F44N	-0.653 ± 0.17
F44C	-0.689 ± 0.15

Variant	abundance fitness
F44W	-0.244 ± 0.068
F44K	-0.818 ± 0.17
F44H	-0.807 ± 0.24
F44A	-0.614 ± 0.083
F44P	-0.685 ± 0.12
F44L	-0.351 ± 0.062
F44V	-0.756 ± 0.088
F43W	-0.58 ± 0.097
F43T	-0.695 ± 0.13
F43M	-0.291 ± 0.097
F43P	-1.12 ± 0.26
F43A	-0.552 ± 0.093
F43G	-0.753 ± 0.073
F43D	-0.64 ± 0.13
F43H	-0.799 ± 0.32
F43C	-0.391 ± 0.12
F43I	-0.611 ± 0.17
F43V	-0.658 ± 0.091
F43L	-0.693 ± 0.11
F43K	-0.644 ± 0.12
F43Q	-0.909 ± 0.18
F43N	-0.565 ± 0.2
D50A	-0.15 ± 0.068
D50L	-0.475 ± 0.069

Variant	abundance fitness
D50H	-0.188 ± 0.082
D50N	-0.079 ± 0.078
D50S	0.089 ± 0.048
D50Q	-0.041 ± 0.078
D50T	-0.074 ± 0.062
D50K	0.131 ± 0.083
D50E	-0.184 ± 0.13
D50G	0.069 ± 0.07
D50F	-0.645 ± 0.15
D50I	-0.421 ± 0.12
D50W	-0.445 ± 0.15
D50C	-0.263 ± 0.13
D50M	-0.329 ± 0.1
D50P	-0.016 ± 0.06
D50Y	-0.287 ± 0.095
Q37H	-0.073 ± 0.096
Q37C	-0.078 ± 0.073
Q37I	-0.179 ± 0.11
Q37E	0.048 ± 0.058
Q37L	-0.154 ± 0.049
Q37D	0.225 ± 0.066
Q37T	-0.067 ± 0.065
Q37M	-0.048 ± 0.078
Q37P	0.092 ± 0.055

Variant	abundance fitness
Q37G	0.048 ± 0.042
Q37F	-0.433 ± 0.13
Q37Y	-0.1 ± 0.1
Q37K	0.165 ± 0.062
Q37V	-0.124 ± 0.054
Q37W	-0.483 ± 0.075
Q37N	0.122 ± 0.089
K42H	-0.043 ± 0.14
K42N	-0.421 ± 0.12
K42L	-0.86 ± 0.11
K42W	-0.783 ± 0.12
K42M	-0.659 ± 0.13
K42C	-0.624 ± 0.13
K42D	-0.953 ± 0.23
K42F	0.052 ± 0.14
K42S	-0.716 ± 0.12
K42V	-0.841 ± 0.11
K42Y	-0.957 ± 0.33
K42Q	-0.044 ± 0.083
K42A	-0.602 ± 0.099
K42E	-0.636 ± 0.11
K42T	-0.356 ± 0.093
K42P	-0.763 ± 0.15
K42R	0.158 ± 0.042

Variant	abundance fitness
V55G	-0.335 ± 0.046
V55L	-0.21 ± 0.055
V55S	-0.148 ± 0.054
V55M	-0.024 ± 0.066
V55A	-0.212 ± 0.058
V55Q	0.106 ± 0.06
V55D	-0.259 ± 0.12
V55W	-0.189 ± 0.061
V55F	0.204 ± 0.083
V55Y	0.2 ± 0.08
V55C	0.198 ± 0.073
V55R	0.225 ± 0.036
V55I	0.151 ± 0.07
V55H	0.365 ± 0.075
V55K	0.199 ± 0.061
V55P	-0.895 ± 0.14
V55E	-0.104 ± 0.059
V55T	0.195 ± 0.056
M48A	0.287 ± 0.07
M48Y	0.175 ± 0.081
M48W	0.017 ± 0.059
M48F	-0.121 ± 0.1
M48T	0.296 ± 0.057
M48Q	0.089 ± 0.066

Variant	abundance fitness
M48E	0.09 ± 0.068
M48H	0.056 ± 0.093
M48G	0.316 ± 0.038
M48L	-0.074 ± 0.056
M48K	0.039 ± 0.072
M48N	0.567 ± 0.062
M48I	-0.13 ± 0.12
M48R	0.204 ± 0.039
M48S	0.283 ± 0.047
M48C	0.133 ± 0.067
M48V	0.125 ± 0.048
K56A	-0.32 ± 0.06
K56I	0.03 ± 0.096
K56C	0.103 ± 0.068
K56H	-0.216 ± 0.1
K56G	-0.63 ± 0.066
K56L	-0.094 ± 0.051
K56N	-0.678 ± 0.22
K56E	-0.431 ± 0.079
K56D	-0.738 ± 0.21
K56F	-0.009 ± 0.082
G53T	0.092 ± 0.058
G53R	0.382 ± 0.036
G53I	-0.501 ± 0.19

Variant	abundance fitness
G53N	0.563 ± 0.093
G53V	-0.005 ± 0.046
G53P	-0.211 ± 0.071
G53F	-0.362 ± 0.12
G53W	-0.458 ± 0.085
G53L	-0.321 ± 0.058
G53Y	0.223 ± 0.14
G53A	0.096 ± 0.042
G53M	-0.032 ± 0.069
G53C	0.2 ± 0.065
G53S	0.153 ± 0.05
G53Q	0.327 ± 0.055
G53K	0.482 ± 0.052
G53H	0.358 ± 0.1
G53E	0.209 ± 0.051
P39K	0.194 ± 0.065
P39A	-0.14 ± 0.064
P39E	0 ± 0.064
P39D	0.357 ± 0.088
P39Q	0.11 ± 0.076
P39G	0.062 ± 0.039
P39M	0.006 ± 0.073
P39T	0.062 ± 0.069
P39V	-0.106 ± 0.057

Variant	abundance fitness
P39Y	-0.494 ± 0.18
P39W	-0.466 ± 0.081
P39R	-0.037 ± 0.046
P39H	0.073 ± 0.11
P39S	0.051 ± 0.057
P39C	-0.306 ± 0.11
P39N	0.061 ± 0.11
P39I	-0.066 ± 0.2
D51C	-0.191 ± 0.11
D51T	0.166 ± 0.067
D51V	-0.113 ± 0.077
D51A	0.022 ± 0.07
D51I	-0.202 ± 0.094
D51S	0.072 ± 0.056
D51Q	0.158 ± 0.084
D51M	-0.279 ± 0.12
D51W	-0.824 ± 0.24
D51K	0.197 ± 0.079
D51Y	-0.224 ± 0.097
D51F	-0.198 ± 0.11
D51N	0.25 ± 0.063
D51H	0.058 ± 0.079
D51G	-0.004 ± 0.079
D51R	0.224 ± 0.059

Variant	abundance fitness
D51E	-0.074 ± 0.11
D51P	0.057 ± 0.073
D51L	-0.32 ± 0.077
V54A	0.005 ± 0.056
V54S	-0.082 ± 0.055
V54F	0.136 ± 0.076
V54E	0.192 ± 0.052
V54G	-0.127 ± 0.044
V54D	0.168 ± 0.08
V54T	-0.178 ± 0.082
V54W	0.13 ± 0.052
V54K	-0.657 ± 0.14
V54C	0.01 ± 0.075
V54L	-0.083 ± 0.053
V54R	-0.556 ± 0.064
V54I	0.175 ± 0.09
V54M	-0.188 ± 0.079
V54H	0.002 ± 0.12
V54Q	-0.241 ± 0.089
V54N	-0.005 ± 0.11
V54P	0.069 ± 0.067
V54Y	-0.088 ± 0.12
